Measurements published in PMC7555870, “Isolation, Evaluation, and Identification of Angiotensin I-Converting Enzyme Inhibitory Peptides from Game Meat” (Foods, 2020).
Like-named read-outs stand apart in the source and are kept apart here. Marks after values point to notes of the source that are not given here. Where no end group is shown, it is not given here. [ ]: non-standard residue; d: D form.

Columns and labels:
ACE = settings: previously reported peptides; cited from earlier work
Description: The potent ACE inhibitory peptides are generally short chains of 3–6 amino acids, with a Ser, Leu, or Thr at the C-terminal, which plays an important role in this activity. The ACE inhibitory peptides identified in this study, except for IKEVTER, seem to be of a larger size than those of inhibitory peptides described in previous reports. ACE inhibitory peptides have been previously reported from meat and seafood vertebrate specimens, and their IC50 values have been reported.

[1] = molecular target: T1, ACE, a dipeptidyl carboxypeptidase (EC 3.4.15.1) extracted from rabbit lung (Oryctolagus cuniculus, UniProt P12822); assay: ACE inhibitory activity assay, modified Cheung method (96-well plate, HHL, OPA fluorescence); format: biochemical; settings: synthesized peptides identified from digested venison; mean ± SD of three repeated experiments; ND = not detectable
T1 construct: extracted from rabbit lung; purchased Sigma Chemical Co. (St. Louis, MO, USA); host or cells: rabbit lung tissue
T1 sequence (P12822 34-1310): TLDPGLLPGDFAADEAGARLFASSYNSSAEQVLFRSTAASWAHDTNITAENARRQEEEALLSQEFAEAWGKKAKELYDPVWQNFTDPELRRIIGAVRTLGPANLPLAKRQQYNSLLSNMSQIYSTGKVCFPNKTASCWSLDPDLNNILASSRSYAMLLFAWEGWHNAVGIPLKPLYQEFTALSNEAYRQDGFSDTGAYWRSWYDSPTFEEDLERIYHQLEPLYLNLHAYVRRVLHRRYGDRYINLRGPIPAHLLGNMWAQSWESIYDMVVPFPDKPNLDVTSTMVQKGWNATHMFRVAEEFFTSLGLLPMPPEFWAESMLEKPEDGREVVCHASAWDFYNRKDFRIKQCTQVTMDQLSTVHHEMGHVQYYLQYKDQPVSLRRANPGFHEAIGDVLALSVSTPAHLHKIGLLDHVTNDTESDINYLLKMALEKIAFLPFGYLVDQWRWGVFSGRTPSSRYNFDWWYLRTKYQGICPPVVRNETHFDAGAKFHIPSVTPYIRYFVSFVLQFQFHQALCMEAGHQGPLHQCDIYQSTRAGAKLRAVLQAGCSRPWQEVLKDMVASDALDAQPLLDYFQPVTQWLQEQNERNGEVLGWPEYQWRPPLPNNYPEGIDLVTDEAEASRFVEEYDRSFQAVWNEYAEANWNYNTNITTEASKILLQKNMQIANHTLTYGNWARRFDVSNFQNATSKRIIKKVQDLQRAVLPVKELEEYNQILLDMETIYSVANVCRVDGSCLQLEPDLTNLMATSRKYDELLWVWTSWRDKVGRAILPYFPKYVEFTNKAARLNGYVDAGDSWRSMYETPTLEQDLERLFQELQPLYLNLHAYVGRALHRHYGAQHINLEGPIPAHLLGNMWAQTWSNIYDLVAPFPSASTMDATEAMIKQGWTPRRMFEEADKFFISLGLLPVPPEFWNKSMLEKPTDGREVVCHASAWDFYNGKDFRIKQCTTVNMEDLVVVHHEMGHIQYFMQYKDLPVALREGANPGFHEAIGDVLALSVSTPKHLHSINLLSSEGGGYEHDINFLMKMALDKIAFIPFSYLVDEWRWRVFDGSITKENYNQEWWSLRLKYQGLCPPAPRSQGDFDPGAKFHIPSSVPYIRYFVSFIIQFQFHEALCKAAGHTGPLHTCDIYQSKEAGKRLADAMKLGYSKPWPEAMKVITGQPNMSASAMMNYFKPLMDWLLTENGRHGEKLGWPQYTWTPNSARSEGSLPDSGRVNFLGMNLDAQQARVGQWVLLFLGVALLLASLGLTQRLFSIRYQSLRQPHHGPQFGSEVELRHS
Method: The digested samples were centrifuged at 10,000× g for 15 min, and the supernatants were subjected to an ACE inhibitory assay. ACE inhibitory activity was measured using a previously reported method. ACE, a dipeptidyl carboxypeptidase (EC 3.4.15.1) extracted from rabbit lung, was obtained from Sigma Chemical Co. (St. Louis, MO, USA). Hippuryl-L-histidyl-L-leucine (HHL) (Nacalai Tesque) was used as the synthetic substrate. A 40 µL aliquot of each sample solution was added to 100 µL of borate buffer (containing 0.3 M NaCl, 5 mM HHL, pH 8.3) and incubated at 37 °C for 3 min. Then, 20 µL ACE solution (0.1 U mL^−1) was added to each sample solution, and the reaction mixture was incubated at 37 °C for 30 min. After that, the reaction was terminated using 250 µL of 1 M HCl, and hippuric acid was extracted by adding 1.5 mL of ethyl acetate and shaking. Eventually, mixtures were centrifuged at 1750× g for 10 min, 1 mL of supernatant was transferred into a test tube, and ethyl acetate was eliminated by heat evaporation at 95 °C. The precipitate was re-dissolved in 2 mL of deionized water and measured spectrophotometrically at 228 nm, using a UV-1800 spectrophotometer (Shimadzu, Kyoto, Japan). For the analysis of samples fractionated by reversed-phase chromatography, the synthetic peptides were assayed using the modified method reported by Cheung, et al.. Briefly, 50 µL of sample solution, 100 µL of the ACE 0.01 U/mL, and 20 µL of 25 mM HHL were mixed in a 96-well plate and incubated at 37 °C for 40 min. Subsequently, 100 µL of 1 M NaOH, 10 µL 0.2% OPA, and 15 µL 3.6 M phosphoric acid were added, and the fluorescence of samples was measured using the plate-reader POWERSCAN MX (DS Pharma Biomedical Co., Ltd., Osaka, Japan) at an excitation wavelength of 360 nm and emission wavelength of 460 nm. The inhibitory activity (%) was calculated as follows: inhibitory activity (%) = ((Ac – As)/(Ac – Ab)) × 100. Ac is the intensity of the control, as is the intensity of the sample, and Ab is the intensity of the blank. Data are expressed as the 50% inhibitory concentration (IC50) for each sample.

[2] = molecular target: T2, angiotensin I-converting enzyme (ACE), a dipeptidyl carboxypeptidase (EC 3.4.15.1) extracted from rabbit lung (rabbit) (UniProt P12822)
T2 sequence: T1 sequence (P12822 34-1310)

Molecule: DFHING
- ACE inhibition IC50 values (ACE): 64.3 µg/mL

Molecule: GFHI
- ACE inhibition IC50 values (ACE): 117 µg/mL

Molecule: GLSDGEWQ
- ACE inhibition IC50 values (ACE): 50.5 µg/mL

Molecule: IKEVTER [IKEVTER, Isoleucine-Lysine- Glutamic Acid-Valine-Threonine-Glutamic Acid-Arginine]
- IC50 [1]: 99 µM

Molecule: TEAGATVTVK [TEAGATVTVK]
- IC50 [1]: 214 µM

Molecule: VcNYVNWIQQTIAAN (V[code c]NYVNWIQQTIAAN; not fully specified; printed as VcNYVNWIQQTIAAN) [synthesized peptide identified from digested venison; origin Tropomyosin alpha-3 chain]
- Ace Inhibitory Activity (IC50) [1]: 358.64 ± 64.71 ^a μg/mL

Molecule: mQGTLEDQIISANPLLEAFGNAK ([code m]QGTLEDQIISANPLLEAFGNAK; not fully specified; printed as mQGTLEDQIISANPLLEAFGNAK) [synthesized peptide identified from digested venison; origin Myosin-1]
- Ace Inhibitory Activity (IC50) [1]: 292.83 ± 38.27 ^a,b μg/mL

B1: … (peptide)
peptide: TEAGATVTVK
- ACE inhibitory activity (IC50; hydrolysis of hippuryl-L-histidyl-L-leucine by ACE, OPA fluorescence, 37 °C) [2]: 359 µg/mL
- ACE inhibitory activity (IC50; hydrolysis of hippuryl-L-histidyl-L-leucine by ACE, OPA fluorescence, 37 °C) ([2]; record 2): 293 µg/mL
- ACE inhibitory activity (IC50; hydrolysis of hippuryl-L-histidyl-L-leucine by ACE, OPA fluorescence, 37 °C) ([2]; record 3): 86.5 µg/mL
- ACE inhibitory activity (IC50; hydrolysis of hippuryl-L-histidyl-L-leucine by ACE, OPA fluorescence, 37 °C) ([2]; record 4): 209 µg/mL
